Drawing on patent US20200353003A1, this text covers killing of target cells expressing BDCA2 (reporter-BDCA2 and RS4-11-BDCA2) by NK and T cells expressing BDCA2-CAR, flow cytometry based cytotoxic assay, E:T=1:1 for one molecule.

The test has as its target BDCA2 antigen (CLEC4C, CD303) expressed on transduced RS4-11 and A95-KK reporter cells (UniProt Q8WTT0). In words: cell-based or functional assay.

A value given as a limit tells only on which side of the number the result lay.

Sequence of UniProt Q8WTT0 (Q8WTT0 whole entry): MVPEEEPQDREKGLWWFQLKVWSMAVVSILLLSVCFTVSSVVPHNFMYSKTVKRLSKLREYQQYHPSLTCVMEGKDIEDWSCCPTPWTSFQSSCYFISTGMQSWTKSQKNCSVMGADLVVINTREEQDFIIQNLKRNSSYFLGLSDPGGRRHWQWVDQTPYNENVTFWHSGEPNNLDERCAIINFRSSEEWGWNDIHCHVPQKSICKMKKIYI

B1: BDCA2 CAR (chimeric antigen receptor specific for BDCA2, with aBDCA2-scFV as binder) (protein, part only; not given: hinge, transmembrane and signaling domains, not shown: another chain or arm of the molecule; a dimerising Fc or GST)
scFv: DIQMTQSPSSVSASVGDRVTITCRASQEISGYLSWYQQKPGKAIKRLIYAASTLDSGVPSRFSGSRSGTDFTLTISSLQSEDFATYYCLQYASYPPTFGGGTKLEIKGGGGSGGGGSGGGGSQVTLKESGPTLVKPTQTLTLTCTFSGFSLSTSGMGVGWIRQPPGKALEWLAHIWWEDDKYYNPSLKSRLTITKDTSKNQVVLTMTNMDPVDTATYYCTRNWDYYTMDYWGQGTTVTVSS
In the case of B1, the killing of target cells expressing BDCA2 (reporter-BDCA2 and RS4-11-BDCA2) by NK and T cells expressing BDCA2-CAR, flow cytometry based cytotoxic assay, E:T=1:1 was greater than 70%.
